The record followed here is PMC10127185, “Low complexity domains of the nucleocapsid protein of SARS-CoV-2 form amyloid fibrils” (Nature Communications, 2023).

This data set concerns the molecule itself. Nature of the data set: X-ray fiber diffraction.

B1: NCAP central low complexity domain segment (construct LCD, residues 171–263) (domain or fragment)
chain: TFYAEGSRGGSQASSRSSSRSRNSSRNSTPGSSRGTSPARMAGNGGDAALALLLLDRLNQLESKMSGKGQQQQGQTVTKKSAAEASKKPRQKRT
notes: also called central LCD; LCD segment; not shown: 6xHis-SUMO, N-terminal, cleaved
On to B1, for which the binding result was “binds”.
